According to patent US20100151486A1, “OSTEOPONTIN FUNCTIONAL EPITOPES, MONOCLONAL ANTIBODIES AGAINST THE EPITOPES AND USES THEREOF” (SHANGHAI NATIONAL ENGINEERING RESEARCH CENTER OF A, priority 2007, published 2010):
“Also recorded” adds a separate entry of the source.

Experiments:
MDA-MB-435s cells [1] = assay: Spontaneous lung metastasis in nude mice (MDA-MB-435s); assay type: in vivo; settings: 5 mg/kg, 2 times per week; histological sections
Protocol: The MDA-MB-435s cells were detached and re-suspended in serum-free DMEM to the concentration of 5×10^7 cells/ml. Each group of 10 female 4 to 6-week old nude mice were anaesthetized by injection of sodium pentobarbital (ip.). Under sterile condition, the skin was sterilized, and a small incision (0.5-mm) was made in the skin over the lateral thorax below the right limb. The mammary fat pads (mfp) were exposed and MDA-MB-435s cells (5×10^6 in 100 μl DMEM) were orthotopically injected into the mfps. The cut was then closed. The animals were randomly divided into four groups, and each accepted the treatment as specified below from the day after the tumor cell inoculation:
1A12: 5 mg/kg, 2 times per week;
Control antibody: 5 mg/kg, 2 times per week.
The tumor formation in nude mice was observed once a week, the maxima of the diameter (length) and a perpendicular dimension of the tumor (width) were measured using a caliper, and the volume was calculated as follows: Volume=0.52×length×width^2. The changed tumor volumes were plotted versus the time into a tumor growth curve.
The mice were sacrificed by cervical dislocation at the end of the 10th week after inoculation. For each group, tumor tissues were isolated, fixed with 10% neutral formalin and embedded in paraffin, and the tumor tissue and lung tissue were stained with H & E for analysis. […]

[2] = system: human vascular endothelial cell (HUVEC); assay: HUVEC proliferation by 3H-TdR incorporation; assay type: cell-based; settings: M200+1% BSA+OPN+antibody; 24 hours
Protocol: HUVEC cell proliferation was measured by the ^3H-TdR incorporation method to determine the protective effect of OPN on cell survival and the inhibitory effect of the anti-OPN antibodies on the OPN protection. Each well of a 96-well plate was inoculated with 2×10^4 HUVECs and cultured in a complete medium for 24 hours. The cells were then treated as following for 24 hours: […]
iv. M200+1% BSA+OPN+murine anti-OPN antibody 1A12 v. M200+1% , BSA+OPN+human-murine chimeric anti-OPN antibody c1A12 vi. M200+1% BSA+OPN+humanized anti-OPN antibody h1A12 vii. M200+1% BSA+OPN+irrelevant antibody
24 hours later, 1 uCi/well ^3H-thymidine was added and, after being incubated at 37° C. for 6 hours, washed once with PBS. The plate was treated with ice-cold 10% trichloroacetic acid/H2O at 4° C. for 10 min, and then washed for two times with, ice-cold ddH2O. Cytolysis was conducted by adding into each well 0.1 ml of 0.5 N NaOH, 0.5% SDS at room temperature for 10 min. After adding 0.2 ml of 0.5 N HCl and mixing, the cells were collected using a multiple cell collector.

MDA-MB-435s cells [3] = assay: Scratch wound healing assay; assay type: cell-based; settings: antibody 25 μg/ml; 24 hours
Protocol: The MDA-MB-435s cells cultured in a 12-wells plate to almost confluent (90%) washed with PBS and starved overnight with serum-free DMEM. Scratches were made on the cell monolayer using a 10 μl pipette, and PBS was added to wash away the floating cells. The test groups were treated with 25 μg/ml of the murine anti-human OPN antibody 1A12, the human-murine chimeric antibody c1A12 and the humanized antibody h1A12, and the control group, 25 μg/ml of the irrelevant antibody. The cells were incubated in an incubator at 37° C. for 24 hours. The result was expressed as the number of the cells that cross the base line.

[4] = system: chicken embryo chorioallantoic membrane (CAM); assay: Chicken embryo chorioallantoic membrane (CAM) angiogenesis assay; assay type: in vivo; settings: human OPN 250 ng + antibody 1 μg; P<0.01
Protocol: The Leghorn chicken embryos were purchased from the farm with a fertilization rate of >90%. The 8-day old chicken embryos were selected. After sterilization, a small hole was drilled in the center of the top air chamber of the embryo with a lancet, the surrounding shell with the inner membrane was removed with caution to create an opening of 1 cm×1 cm. Then the following analytes/gelatin sponge were added to the CAM surface: i) PBS; ii) HOPN; iii) human OPN (250 ng); iv) human OPN (250 ng)+the irrelevant antibody as control (1 μg); v) human OPN (250 ng)+the murine anti-OPN antibody 1A12 (1 μg); vi) human OPN (250 ng)+the murine-human chimeric anti-OPN antibody c1A12 (1 μg); vii) human OPN (250 ng)+the humanized anti-OPN antibody h1A1.2 (1 μg).
The analytes/gelatin sponge were added to the CAM surface, which was far away from the already-formed dense vascular network. […] The number of vessels within an area edging 2 mm from the edges of the carrier slide was counted under a dissecting microscope to study the angiogenesis using the “vascular index” (Ribatti, D., B. Nico, A. Vacca et al., The gelatin sponge-chorioallantoic membrane assay. Nat Protoc, 2006, 1 (1): 85-91). The number of vessel was counted at the same magnification under the dissecting microscope. The result in each sample group was expressed as “mean±standard deviation (x±S)”. […]

MDA-MB-435s cells [5] = assay: Cell invasion assay (Transwell, Matrigel); assay type: cell-based; settings: antibody 25 μg/ml; in the presence of hOPN; 24 hours
Protocol: The assay of cell invasion was carried out using the Transwell system (Corning) with the pore size of […]. The basement membrane of the upper chamber was coated with the artificial matrix gel (Matrigel). After being dried in a flame hood, the matrigel was hydrated with DMEM at 37° C. for 1 hour. MDA-MB-435s cells were detached using 0.2% EDTA and suspended in 0.25% BSA/DMEM at the concentration of 5×10^5 cells/ml. 100 μl of the obtained cell suspension as well as the following 25 μg/nil of antibodies were respectively added into the upper chamber of each well: 1A12 (murine anti-human OPN antibody), c1A12 (human-mouse chimeric antibody), h1A12 (humanized antibody), and 23C3 (irrelevant antibody control). To lower chamber, 0.25% of BSA/DMEM (with or without OPN) was added. The system was then incubated in incubator at 37° C. for 24 hours. After that, the cells remaining in the upper chamber was wiped away using a cotton swab, and the cells penetrate through the basement membrane into the lower chamber were washed with PBS, fixed with 1% formaldehyde, and then stained with 0.5% crystal violet. The cells were counted in the field at 200× magnification under a microscope.

B1: 1A12: murine anti-hOPN mAb; VH SEQ ID NO: 4, VL SEQ ID NO: 6; from hybridoma 1A12 (antibody, V domains shown)
VH: QVQLEQSGPELVKPGASVKMSCKSSGYTFTTYVMHWVKQKPGQGLEWIGYINPYNDGSKYNEKFKGKATLTSDKSSNTAYMELSSLTSEDSAVYYCASHYGGSPAYWGQGTLVTVSA
VL: DILMTQTPLSLPVSLGDQASISCRSSQSLVHSNGNTYLHWYLQKPGQSPKLLIYKVSNRFSGVPDRFSGSGSGTDFTLKISRVEAEDLGVYFCSQSTHVPWTFGGGTKLEIKR
modifications: amino acid sequence of the heavy chain variable region in 1A12; amino acid sequence of the light chain variable region in 1A12
notes: murine anti-hOPN mAb; from hybridoma 1A12
number of the metastasis in lung (MDA-MB-435s cells [1]): reduced; also recorded: block tumor metastasis | size of the metastasis in lung (MDA-MB-435s cells [1]): reduced | 3H-TdR incorporation relative to the OPN group [2]: significantly lower | inhibition of the reparation of the scratches and damages (MDA-MB-435s cells [3]): effectively inhibit | inhibition of OPN-induced angiogenesis in CAM [4]: significantly inhibit | blocking of invasion of the basement membrane by MDA-MB-435s (MDA-MB-435s cells [5]): effectively block
